Test results from US20170008949A1 (Hoffmann-La Roche, published 2017).

Key:
[1] = molecular target: recombinant glycosylated human PAI-1 (active), produced in insect cells (human, UniProt P05121 24-402, glycosylated (sites not given)); experiment: cell-based or functional assay
[2] = molecular target: recombinant non-glycosylated human PAI-1 (active), produced in E. coli as N-terminal 6xHis-tagged fusion … (human, UniProt P05121 24-402); experiment: cell-based or functional assay
Chain of recombinant non-glycosylated human PAI-1 (active), produced in E. coli as N-terminal 6xHis-tagged fusion … (P05121 24-402 limits assumed): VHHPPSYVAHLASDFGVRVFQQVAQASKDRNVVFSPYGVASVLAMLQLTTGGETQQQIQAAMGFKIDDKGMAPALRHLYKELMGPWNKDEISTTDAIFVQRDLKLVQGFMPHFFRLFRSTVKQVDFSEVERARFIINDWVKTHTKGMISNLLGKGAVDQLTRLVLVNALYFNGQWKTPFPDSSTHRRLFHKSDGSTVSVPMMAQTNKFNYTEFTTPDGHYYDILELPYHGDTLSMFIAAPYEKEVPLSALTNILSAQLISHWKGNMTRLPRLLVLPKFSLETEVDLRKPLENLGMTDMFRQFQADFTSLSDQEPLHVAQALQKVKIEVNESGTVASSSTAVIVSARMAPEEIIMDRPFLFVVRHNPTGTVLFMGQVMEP

Chain of recombinant glycosylated human PAI-1 (active), produced in insect cells (P05121 24-402 limits assumed): as above

IC50 (µM) vs. human PAI-1, PAI-1 inhibition assay (residual rPA serine protease activity) [1]: 0.065 µM | IC50 (µM) vs. human PAI-1, PAI-1 inhibition assay (residual rPA serine protease activity) [2]: 0.005 µM
B1: PAI1-0046 (reference PAI-1 latency inducing antibody with a human IgG4 SPLE Fc-region) (antibody, V domains shown)
VH: QVQLVQSGAEVKKPGASVKVSCKASGYTFTNYGMNWVRQAPGQGLEWMGWINTYTGEPTYTDDFKGRFTMTLDTSISTAYMELSRLRSDDTAVYYCAKDVSGFVFDYWGQGTLVTVSS
VL: DIVMTQSPDSLAVSLGERATINCKSSQSLLNIIKQKNCLAWYQQKPGQPPKLLIYWASTRESGVPDRFSGSGSGTDFTLTISSLQAEDVAVYYCQQYYSYPYTFGQGTKLEIKR
